Results: the DeepSol protein solubility set

Experiment: soluble on expression in E. coli; label from the status in PepcDB or PDB records

## MGSDKIHHHHHHMSRFVGTETEYGIATPSNTMLSPIVTSTHAVVAFSLGERCASQARWDFSEESPLRDLRGFDLRRYRTVPVVDPHALGVANSVLINGGRFYVDHAHPEYSSPETSSAFQAMLYDAAGDVVMNRAVELVAENSQRKHSVLEHHDPCPPLKIYKNNVDGKGASYGSHENYLYNRETPFEEISSGLTPFFITRQVIIGAGRVGIGQYGEKSGFQISQRADYIEQEISLETTLNRGIINTRDEPHADSEHFGRLHVIIGDANMSQTSNFLKIGMTTLVLDAIEAGVDFSDLAVANPVAEVSAISHDLTLTHKIVLRDGRTLTALELLDEYRKRVSPQSDDDLDVLKEWSEILVLLQKGPFYAADRLDWCAKWQLISSFIKRGVSIDDPKIQLIDLQYADIDPAKSLYHALVRKGRMRTLVSTEQINNAAWSPPKGSRAYLRGSLISRFPDSVVQASWDSITLQTSRDQATKIKMPVVQSLSAEAIATIDTASSVKEVATILSQWLPVTTISLT
  soluble on expression in E. coli: not soluble

## MSLISPIIRLSHVTFQTSSAARVIKEFVTKYQFHPFAARGLDGGSPCQVALKNGGVVFMVNENTPKTHENSVLLYDFPLQIPFPDTACNVTFEVEDVSGLYHHLVDEGCQLLLPPTELHDDFGSVTYCIVKSVVGNVSHTLIDRTHYRSSFLPGFEYLKNSTHNLSSGNMTEGHHHHHH
  soluble on expression in E. coli: not soluble

## MGHHHHHHSHMANSAGSMANSAGSPELLTKHNRRVAQKTVESLKRSLMSTNLHPSKQVKTSSQYTIFSTPQIATTTPQTQVSPGMPLMFPGGSPNFVQDIKMENGFMDVDSQSSQCPSVERNFASPRSNCSTVDSIPPMQMGQNQTHLYLPDATNFTFNGNFASPSSNCSTVDSIPPFQIGQRNNHMYLPENSNFPVNGCSPTHFSGGSMTPINNNNNVLINNNNNDFLSQKMSAISIPPQGNFGIKQVYQQTQQFLPQLQPESIPYLAQSHPEQSQYQQQQQPQEQQPPADEPTQSFSDLISSSIGMAPIDTSELIQDIEAELNSLGIQPFK
  soluble on expression in E. coli: not soluble

## MIDTTVFQNKTAVYYTLGCKLNFSETSTIGKILREAGVRTARKGEKADICVVNTCSVTEMADKKCRQAIHRLVKQHPGAFVVVTGCYAQLKPGDVAKIKGVDVVLGAEQKGDLLQYLGDLHKHEEGEAFTTTTKDIRSFSPSCSRGDRTRFFLKVQDGCDYFCSYCTIPFARGRSRNGTVASMVEQARQAAAEGGKEIVLTGVNIGDFGKTTGETFFDLVKALDQVEGIERYRISSIEPNLLTDEIIEFVSRSRRFMPHFHIPLQSGCDEVLKLMRRRYDTALFASKVKKIKEVMPDAFIGVDVIVGTRGETEEYFEQAYQFISGLDVTQLHVFSYSERPGTQALKIDYVVSPEEKHQRSQRLLTLSDEKTRAFYTRHIGQTMQVLMEKSKAGTPMHGFTANYIRVEVENDESLDNQMINVRLGEFNEDMTALKGTILMNYEVLEHHHHHH
  soluble on expression in E. coli: soluble

## MAHHHHHHMSKAVQFSVLKQGSLEPGSWTQRVLTIDTKSDTVTISRKHHPEHVFYHSLEVAHVQMWPRYKASEISGHFNSLKAKMTLRIFGKQVPVPKMSVEAVTTADVAEMIRVPSVPSSISLDASLNIERPPVAAATLSQKQKERHPATATSANDDLCDSWMIRFTSIDSYELAVMLLRNMRNTEGKRKRLFGDHVLQDLERVQKAWAEETTGAKSIGGALRSGS
  soluble on expression in E. coli: soluble

## MGSDKIHHHHHHMSTPVLNLDPDTLLMSSKDARAAAAPYAAEYQGRGPFNYGGYDNFLNPEILERVREELKQLPEAANSYDRPQERLKTSYVPERLPMYTRQLFYALNSRPMLAFIEELTGIKGLIPDPYFAGGGVHVVANGGHLDIHADFNHHAGLNLERRVNLLIYLNKDWREEYGGSFEVWDENMAGKLASYVPLFNRMCMFSTSSESWHGNPEPVNHPDGEPRMSIALYYYTATWDSTRKSHTTLFKPRPGTKDQRDRQVARRELLQDLLPPVLHRKLAWRLEKLGF
  soluble on expression in E. coli: not soluble

## MQTEFLTGAPTRSAAFPVTGGDWGTAGILQTPTARMNDAGEASLSMSHVSPYTRLNFALQPLDWLEIGFRYTDVSNQPYGPVSLSGTQSYKDKSIDAKIRLWRESAYLPDVAVGFRDIAGSGLFSGEYLVASKRTGPFDWSVGLGWGYMGARGNLRNPLSMISRRFDDRANSATPNGGELGYGSWFRGRVSPFGGVQYQTPDERLILKAEYDGNDYRHEPFGQVLKERSPFNFGAVYRATRNIDLSVGFERGTRVMFGVSLHGNLKRATMPKLGNPPPVPVTQPAANAGPRTHAAGAPTRGGRSAVASTPRIEGASPSPFDRDWSDTVAQLQAQTNWHVRSIRALGMDLVIEFDDVDAFYLQDQIDRIATILNRDAPLNVRTFHVVALTHGVPVADYQVQRTQWFASRTRALVPSEVAPATTLGRPLTNQSIDMLPPLFEQRPRAFVLSVGPGYQQTLGGPNGFLLYQISANAYGELRMPGGAWLGGELNVGLVDNYGKFTYTADSKLPRVRTYLREYLTTSRVTLPLLQLTKIGRLGNDQFYSVYGGLLESMFAGVGVEWLYRPAHSRLAIGVDVNAVRQRGFRQDFSMRGYKTLTGHVTAYWDTGWQGVQINLSVGQYLAKDKGATLDISRRFRNGVVIGAYATKTNVSPAQFGEGSFDKGIYVTIPFDAMMTRSSSSIANLRWNPVTRDGGAKLDRRYPLYDLTDMGERRSLWYAPPDGAVSPLEHHHHHH
  soluble on expression in E. coli: not soluble

## MLEIKRYKNRVASRKCRAKFKQLLQHYREVAAAKSSENDRLRLLLKQMCPSLDVDSIIPRTPD
  soluble on expression in E. coli: soluble

## MAHHHHHHMSSTEEYYKLMEVILHILKKHKRHVECLKILLKLNRRDKIKDLLFECGDMITCKQMALICSRHSIHLEFTQEEVIRYPHMNLNQLASLSSGEHLSSIFLKLAKDLDVEEPKLPEDIYKTHLEEKRNTNVWDSAKQNLSASFVNAFVNAAFCKDKLMTVNSSL
  soluble on expression in E. coli: not soluble

## FKDFRLGINLNGVYAKNKILFWDEAPGTPEWQKSTGKPIDSGLYYEAIGIFKDQAAVDAYPHWAGARPGDIIFKDVNGDNVIDGNDRVRNDKSRTPRFTGGLNVDLGYKDFDLSFLLQGAMGGVFYQTTESGDFANFLKSFYDNRWTEENPDADFPRTYNRSNEYFINQQNTFWLHKTDYIRLKNIELGYTVPSIWSKKIGVEHLRVYINAYNLLTISPDMKDYDPENTSGSGYNYPLNKVINFGVNLTF
  soluble on expression in E. coli: not soluble

## TSIMAVTFKDGVILGADSRTTTGAYIANRVTDKLTRVHDKIWCCRSGSAADTQAIADIVQYHLELYTSQYGTPSTETAASVFKELCYENKDNLTAGIIVAGYDDKNKGEVYTIPLGGSVHKLPYAIAGSGSTFIYGYCDKNFRENMSKEETVDFIKHSLSQAIKWDGSSGGVIRMVVLTAAGVERLIFYPDEYEQL
  soluble on expression in E. coli: soluble

## AHHHHHHGSGKLDWIREELEELKKKGLYVTIRVLQSAQGPWVIVNGKKVLNMCSNNYLGLAAHPKIKEAAIRAILDYGVGAGAVRTIAGTMDLHVELEEKLAKFKKREAAILFQSGYNANLGAISALLRKGEDGVFLSEELNHASIIDGMRLSGAPKVIYKHLDMEDLKKKLEENKDKKKKIIVTDGVFSMDGDLAPLPEIVELAEQYDAIVYVDDAHGEGVLGSHGRGIVDHFNLHDKVDFEMGTLSKAFGVIGGYVAGPEEAIEYLKQRARPFLFSSAPNPPDVAAAIAAVEILQKSDDLVKKLWDNTHFLQKGLRDLGYDLGNTKHPITPVMLYDEKLAQEFSRRLFEEYNIFAQAIVYPTVPLGTARIRLEPSAAHTKEDLKLVIDAFEDLGRKTGFLK
  soluble on expression in E. coli: soluble

## MELRVGNRYRLGRKIGSGSFGDIYLGTDIAAGEEVAIKLECVKTKHPQLHIESKIYKMMQGGVGIPTIRWCGAEGDYNVMVMELLGPSLEDLFNFCSRKFSLKTVLLLADQMISRIEYIHSKNFIHRDVKPDNFLMGLGKKGNLVYIIDFGLAKKYRDARTHQHIPYRENKNLTGTARYASINTHLGIEQSRRDDLESLGYVLMYFNLGSLPWQGLKAATKRQKYERISEKKMSTPIEVLCKGYPSEFATYLNFCRSLRFDDKPDYSYLRQLFRNLFHRQGFSYDYVFDWNMLKFGASRAADDAERERRDREERLRH
  soluble on expression in E. coli: soluble

## MPQLSRYSDEHVEQLLSELLSVLEKHKAPTDLSLMVLGNMVTNLINTSVAPAQRQAIANSFARALQSSISEDNAH
  soluble on expression in E. coli: not soluble

## MSLEQLVLAIDLGTSGCKCALVSMEVDIRSWAFHGVPLHVSGLSAEQEPEDWWNAFMLGAHELLGADPLRRRQVVAICCSTQSEGTVCVDRNGAAIGRALLWLDKRGADSIKQRMGGGWCNLGGYGPLKLWRSLRLTGGVASLSGMDSAGHMAYILDHDPARYEKTHKFLNVLDYMNMRLSGRYCATGDSMLTAWITDNRDPHRIRYDDGLIRALGIDAGKLPELVGSTEVIGTLKPELADVLGLPRSTPVVAGAVDTSAVAVGATVRDFAPHLYLGTSSWVGAHVPFKKSSVRHHIAAVPSAVKGRYLAMAMQSAAGANLSFLRDKVLYHPDELLSDEQQPDVYALLDRIAARVPPGSRGLIYTPWLCGERSPVGDPSLRAGLINLKLEHSREDIIRAFMEGVAHNTRWMLEPFSRFIGQSSEIIVATGGGAQSDVWCQIMADVCGRVIQQPHNPIQTNARGAAFIAAVALGKLQFNDLPTLQRPHRLYEPSRSTRNLYDNRFATFKEVRKRLAPLYRRLNPSQETTEGHHHHHH
  soluble on expression in E. coli: not soluble

## FPSKSKMFEALIERIEQTLTSYINASKRKENSTALAVKAILYTVIEFARKNPGVTRILTGHALMFENSELKLRVAKFFDGLELQFVNILQMRKLREGKAFQDERALAGYLVTFCEGQFLRLVRSNFSSNPHQHFEKQWSLIKPLFE
  soluble on expression in E. coli: not soluble

## MDVMALKREVIEYSRSIGIDKIGFASADPFVELKERLRRQQELGYQSGFEEPDIEKRTNPSLLLPEAKSIIAIALAYPSKMKNAPRGTKTERRGVFCRASWGKDYHDVLRERLQQLEEFLLAKVPHARVRSMVDTGELADRAVAERAGIGWSGKNCSIITPEFGSYVYLGEMITNIPFPPDEPVENRCGTCTKCIDACPTGALVQGGQLNAQRCLSFLTQTKGFLADEFREKIGNRLYGCDTCQQVCPENKGKDFHLHPEFEPDPEAVKPKLIPLLQMSNREFKETFGAMAGSWRGKKPIQRNAILALAHYKDQTAVPHLLRLLKEDSRPVIRGTAAWALGKIGDPSAKSYLEAARPTEADADVIAEIEKGLKLLAEAKE
  soluble on expression in E. coli: not soluble

## MGSDKIHHHHHHMTEDIIKKYRGKLPESILEQWHLFGFAGYLNGLYWITNPDDYAEVIYDWLEETPLPDDDVYHVLARSAFGELLIWGERNYGRYYIKTMEGILHDNGEQLESAEFYGSDFFFLPKKNYLDYTDKNGNKLFDRAVKKLGVLKADEMYAFEPALALGGEESLQHLTKVNLPVHMKLLKQVTPLRLRTFEDLTAALYGTSYSVDDLTSGQDAESQYQESVQAGEVCPRTGYWTTPAQPNTRHYCKKGEVLPEIKEQDWGEVYWYWDGEN
  soluble on expression in E. coli: not soluble

## MKGRIELGDVTPHNIKQLKRLNQVIFPVSYNDKFYKDVLEVGELAKLAYFNDIAVGAVCCRVDHSQNQKRLYIMTLGCLAPYRRLGIGTKMLNHVLNICGWMDGWMDGWMDGRASEIVEIPCLFLGYQFPKQSKSKLRSLVLSTFTLMDKLQRALAKRRGHK
  soluble on expression in E. coli: not soluble

## MNHMKKNILFDGLRSVARIGETAFVAARAGIKYATEKPSNAKLMRETFESLGSTYIKLGQFIASTPSLFPREYVEEFQGCLDQTPTLPFSYIQEVLAEEFEGRDLNQIFASIDETPLASASIAQVHAARLTTGEDVVIKVQKPGVETILYTDLNVVHWATKMLEKAIPKVKFASLSEIVEEIKIRMVREVDFIEEAQNLDDFVEYLKITNNQAATAPKVYHQFSTRRILTMERLYGVSLTDFDIVKKFAKDPSQVLITAMNTWFGSLMLCKSFHADLHAGNLMLLEDGRIGFIDFGIVGQLNPQVWTACLAFMDALQKTDYTAMAENMLKMGMTKTQIDTQVLAQDLERLFSGVLLADPQEILASKPSDLNDIMLDMVAVGERHGIKFPRDFALLFKQMLYFDRFMRVLAPYTDIYADQRLKMVQTIEPQSLLKHLEHHHHHH
  soluble on expression in E. coli: soluble
